Data taken from patent US20220088148A1 (HANMI PHARM, published 2022).
Bridges are numbered along the chain shown (N, C = ends). Where no end group is shown, it is not given here. [ ]: non-standard residue; d: D form. The star is where a group is joined. Acetyl(2-(4-imidazolyl)) = O=C(Cc1c[nH]cn1)*; Aib = CC(C)(N)C(=O)O

B1: triple agonist of SEQ ID NO: 89 (peptide)
peptide: {Acetyl(2-(4-imidazolyl))}-[Aib]QGTFTSDYSKYLDEKRQKEFVQWLLDTKC
modifications: bridge 15-19
B2: triple agonist of SEQ ID NO: 9 (peptide)
peptide: H[Aib]QGTFTSDVSKYLDGQAAQEFVAWLLAGC
B3: triple agonist of SEQ ID NO: 94 (peptide)
peptide: {Acetyl(2-(4-imidazolyl))}-[Aib]QGTFTSDYSIAMDEIHQKDFVNWLLNTKC
modifications: bridge 15-19
B4: triple agonist of SEQ ID NO: 87 (peptide)
peptide: {Acetyl(2-(4-imidazolyl))}-[Aib]QGTFTSDYSIAMDEIHQKDFVNWLLNTC
modifications: bridge 15-19
B5: triple agonist of SEQ ID NO: 96 (peptide)
peptide: Y[Aib]QGTFTSDYSKYLDEKRAKEFVQWLLDHCPSSGQPPPS
modifications: bridge 16-20
B6: triple agonist of SEQ ID NO: 72 (peptide)
peptide: Y[Aib]QGTFTSDCSKYLDERAAKDFVQWLLDHHPSSGQPPPS
modifications: bridge 16-20; ends not checked
B7: triple agonist of SEQ ID NO: 81 (peptide)
peptide: {Acetyl(2-(4-imidazolyl))}-[Aib]QGTFTSDYSKYLDEKRQKEFVQWLLNTC
modifications: bridge 15-19
B8: triple agonist of SEQ ID NO: 90 (peptide)
peptide: {Acetyl(2-(4-imidazolyl))}-[Aib]EGTFTSDYSIAMDEIHQKDFVNWLLAQKC
modifications: bridge 15-19
B9: triple agonist of SEQ ID NO: 86 (peptide)
peptide: {Acetyl(2-(4-imidazolyl))}-[Aib]QGTFTSDYSKYLDEKRQKEFVNWLLAQC
modifications: bridge 15-19
B10: triple agonist of SEQ ID NO: 74 (peptide)
peptide: {Acetyl(2-(4-imidazolyl))}-[Aib]QGTFTSDYSKCLDEKRAKEFVQWLLDHHPSSGQPPPS
modifications: bridge 15-19
B11: triple agonist of SEQ ID NO: 73 (peptide)
peptide: [Acetyl(2-(4-imidazolyl))][Aib]QGTFTSDYSKYLDECRAKEFVQWLLDHHPSSGQPPPS
modifications: bridge 16-20; ends not checked
B12: triple agonist of SEQ ID NO: 78 (peptide)
peptide: H[Aib]QGTFTSDYSKYLDEKRQKEFVQWLLDTKC
modifications: bridge 16-20
B13: triple agonist of SEQ ID NO: 83 (peptide)
peptide: [Acetyl(2-(4-imidazolyl))][Aib]EGTFTSDYSIAMDEIHQKDFVNWLLAQC
modifications: bridge 16-20
B14: triple agonist of SEQ ID NO: 77 (peptide)
peptide: Y[Aib]QGTFTSDYSKYLDEKAAKDFVQWLLDHHPSSGQPPPSC
modifications: bridge 16-20
B15: triple agonist of SEQ ID NO: 84 (peptide)
peptide: {Acetyl(2-(4-imidazolyl))}-[Aib]EGTFTSDYSIAMDEIHQKDFVDWLLAEC
modifications: bridge 15-19

What was measured:
Assay in all cases: cell-based or functional assay
[1] = target: T1, human GIP receptor (human, UniProt P48546 22-466)
T1 sequence (looked up): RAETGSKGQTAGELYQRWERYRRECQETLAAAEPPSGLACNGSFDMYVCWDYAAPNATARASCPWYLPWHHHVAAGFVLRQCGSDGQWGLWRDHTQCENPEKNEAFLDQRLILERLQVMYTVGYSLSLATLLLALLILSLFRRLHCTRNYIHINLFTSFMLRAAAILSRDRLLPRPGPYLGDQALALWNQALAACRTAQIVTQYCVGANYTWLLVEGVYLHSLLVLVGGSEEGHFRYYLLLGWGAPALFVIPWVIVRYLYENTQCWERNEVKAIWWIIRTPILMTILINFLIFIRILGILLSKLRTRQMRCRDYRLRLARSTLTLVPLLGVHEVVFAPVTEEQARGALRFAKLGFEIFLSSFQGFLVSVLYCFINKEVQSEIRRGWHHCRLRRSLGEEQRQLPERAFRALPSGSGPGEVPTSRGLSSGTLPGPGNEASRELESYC

[2] = target: human GLP-1 receptor (human, UniProt P43220 24-463)
[3] = target: human GCG receptor (human, UniProt P47871 26-477)
Chain of human GCG receptor (P47871 26-477): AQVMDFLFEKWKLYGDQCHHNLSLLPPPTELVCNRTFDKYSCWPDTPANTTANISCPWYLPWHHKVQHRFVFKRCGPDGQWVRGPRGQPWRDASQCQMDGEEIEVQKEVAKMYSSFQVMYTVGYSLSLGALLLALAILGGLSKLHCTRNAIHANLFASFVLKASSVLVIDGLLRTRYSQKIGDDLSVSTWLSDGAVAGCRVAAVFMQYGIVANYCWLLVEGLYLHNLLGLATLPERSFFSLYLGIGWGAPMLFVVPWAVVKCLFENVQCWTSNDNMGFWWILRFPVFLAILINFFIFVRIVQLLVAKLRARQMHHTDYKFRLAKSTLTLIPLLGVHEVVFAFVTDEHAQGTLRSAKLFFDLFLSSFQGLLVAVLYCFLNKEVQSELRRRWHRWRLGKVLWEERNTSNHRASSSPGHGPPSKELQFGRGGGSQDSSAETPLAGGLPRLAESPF

Binder	In vitro activity (%) vs. GIP, cAMP EC50 [1]	In vitro activity (%) vs. GLP-1, cAMP EC50 [2]	In vitro activity (%) vs. Glucagon, cAMP EC50 [3]
B1	< 0.1%	7.1%	0.7%
B2	< 0.1%	32.1%	0.13%
B3	< 0.1%	0.5%	< 0.1%
B4	< 0.1%	0.9%	< 0.1%
B5	5.2%	34.4%	195%
B6	1.6%	11.5%	1%
B7	< 0.1%	7.8%	0.3%
B8	< 0.1%	7.4%	< 0.1%
B9	0.2%	28.4%	0.4%
B10	1%	12.9%	0.9%
B11	3%	22.6%	5.4%
B12	0.12%	51%	14%
B13	0.4%	47.3%	1.3%
B14	35.5%	38.7%	12.2%
B15	< 0.1%	4.2%	< 0.1%
